Values of other authors, collected in article PMC9221429.

Tests used:
[1] = molecular target: B-Raf V600E (Homo sapiens) (UniProt P15056)
[2] = molecular target: B-Raf (Homo sapiens) (UniProt P15056)
Chain of B-Raf (Homo sapiens) (P15056 2-766): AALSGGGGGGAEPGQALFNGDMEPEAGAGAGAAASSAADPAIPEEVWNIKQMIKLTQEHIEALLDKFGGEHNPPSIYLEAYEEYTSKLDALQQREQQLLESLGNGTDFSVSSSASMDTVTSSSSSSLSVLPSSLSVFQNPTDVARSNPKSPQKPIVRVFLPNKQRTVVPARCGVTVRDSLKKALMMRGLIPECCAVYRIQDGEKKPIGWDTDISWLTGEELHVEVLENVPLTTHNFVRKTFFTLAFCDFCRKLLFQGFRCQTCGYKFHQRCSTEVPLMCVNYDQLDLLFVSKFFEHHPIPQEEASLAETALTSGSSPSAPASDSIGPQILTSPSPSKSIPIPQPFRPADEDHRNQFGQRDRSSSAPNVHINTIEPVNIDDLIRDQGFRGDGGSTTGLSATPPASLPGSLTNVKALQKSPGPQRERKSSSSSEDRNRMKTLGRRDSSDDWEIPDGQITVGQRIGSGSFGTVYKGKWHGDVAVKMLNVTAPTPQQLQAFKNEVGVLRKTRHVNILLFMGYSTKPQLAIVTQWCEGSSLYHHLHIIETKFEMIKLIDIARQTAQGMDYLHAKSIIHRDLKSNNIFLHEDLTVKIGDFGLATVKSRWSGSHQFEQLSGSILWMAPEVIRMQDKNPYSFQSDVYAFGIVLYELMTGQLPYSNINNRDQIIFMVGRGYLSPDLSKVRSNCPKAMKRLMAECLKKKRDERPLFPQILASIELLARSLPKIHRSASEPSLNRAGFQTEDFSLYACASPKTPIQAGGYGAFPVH

Chain of Cdc37 (Q16543 2-378): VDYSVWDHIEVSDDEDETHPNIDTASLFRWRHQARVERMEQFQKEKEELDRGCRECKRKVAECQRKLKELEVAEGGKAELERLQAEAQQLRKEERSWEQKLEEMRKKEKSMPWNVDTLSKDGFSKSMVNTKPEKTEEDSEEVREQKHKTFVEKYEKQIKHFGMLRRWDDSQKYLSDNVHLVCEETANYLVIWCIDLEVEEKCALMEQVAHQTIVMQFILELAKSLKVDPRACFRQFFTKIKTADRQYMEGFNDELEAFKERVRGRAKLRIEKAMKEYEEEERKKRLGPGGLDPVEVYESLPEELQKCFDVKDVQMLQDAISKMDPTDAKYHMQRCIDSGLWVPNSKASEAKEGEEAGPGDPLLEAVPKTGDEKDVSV
Chain of B-Raf V600E (Homo sapiens) (P15056 2-766 V600E): as the sequence (P15056 2-766) above, with V599E counted along it

Question: What does the source list for Cdc37 (from UniProt Q16543)?
Answer: Kd [1]: 400 nM; Kd [2]: 1000 nM
